Among the data in publication PMC314469, “Protein Interaction Networks by Proteome Peptide Scanning” (PLoS Biology, 2004) are normalised SPOT signal, Boehringer light units (BLU); mean over the file's lines of this peptide values, retold here.

T1: amphyphisin SH3 (AMPH_HUMAN), P49418
T1 chain: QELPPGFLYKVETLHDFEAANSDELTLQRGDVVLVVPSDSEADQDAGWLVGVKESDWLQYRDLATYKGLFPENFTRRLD

B1: Q16456 13-26 (peptide)
chain: SDTSPRRPLRPTPN
B2: P48200 444-457 (peptide)
chain: SVSGPKRPQDRVAV
B3: Q9H2X0 201-214 (peptide)
chain: SYRRLDRPTRIRFS
B4: Q9UMX9 24-37 (peptide)
chain: SVEPPKRPTSRLIM
B5: O94820 555-568 (peptide)
chain: STQSLKRPGTSQAG
B6: P55201 901-914 (peptide)
chain: TAGPPKRPGRPPKN
B7: O00124 234-247 (peptide)
chain: STSFPRRPLAVEGG
B8: P30670 54-67 (peptide)
chain: SSTNPFRPQKVSSF
B9: Q8WWY6 31-44 (peptide)
chain: SSYTFKRPVTRITP
B10: Q9H875 7-20 (peptide)
chain: SSVRPPRPKKEPQT
B11: Q9HBU5 808-821 (peptide)
chain: SVIKPTRPDRGWFV
B12: Q9NQV6 563-576 (peptide)
chain: SDKAFSRPDKLRLH
B13: O75179 569-582 (peptide)
chain: SVNHIKRPHSVPSS
B14: P78325 741-754 (peptide)
chain: SSVALKRPPPAPPV
B15: Q12789 1979-1992 (peptide)
chain: SVSFIGRPWRVVDG
B16: Q9H6E9 501-514 (peptide)
chain: SWPLLERPWKAFLN
B17: Q9Y256 12-26 (peptide)
chain: SVSRPERPPESAAL
B18: P16144 1660-1673 (peptide)
chain: SWERPRRPNGDIVG
B19: Q9NPJ5 421-434 (peptide)
chain: SVVGIRRPFQIPPG
B20: P55055 405-418 (peptide)
chain: SYTRIKRPQDQLRF
B21: Q9NT59 32-46 (peptide)
chain: TASPPARPPAQVGL
B22: Q9Y6T1 410-424 (peptide)
chain: STAGPLRPPPPGAG
B23: Q16099 865-879 (peptide)
chain: AAVPPPRPPIPEER
B24: Q9BY07 808-821 (peptide)
chain: SVIKPPRPDRGWFV
B25: O43147 533-547 (peptide)
chain: SVIPPDRPPGASAG
B26: Q9H6E1 737-750 (peptide)
chain: SWQILARPWRAFFK
B27: Q9NUN8 9-22 (peptide)
chain: SEEHPRRPDHGRRG
B28: Q9NYY3 591-604 (peptide)
chain: SVTDIRRPRLYLLQ

The first assay concerns the target T1, amphyphisin SH3 (AMPH_HUMAN), P49418. Briefly: SPOT array.
B1: the normalised SPOT signal, Boehringer light units (BLU); mean over the file's lines of this peptide amounted to 3520.

As for B2, the normalised SPOT signal, Boehringer light units (BLU); mean over the file's lines of this peptide came to 38.9.

B3 returned a normalised SPOT signal, Boehringer light units (BLU); mean over the file's lines of this peptide of 780.

Regarding B4, the normalised SPOT signal, Boehringer light units (BLU); mean over the file's lines of this peptide turned out to be 36.

Consider B5, for which the normalised SPOT signal, Boehringer light units (BLU); mean over the file's lines of this peptide was determined as 42.

B6: the normalised SPOT signal, Boehringer light units (BLU); mean over the file's lines of this peptide is 5130.

Molecule B7 came in with a normalised SPOT signal, Boehringer light units (BLU); mean over the file's lines of this peptide of 53.

On to B8, for which the normalised SPOT signal, Boehringer light units (BLU); mean over the file's lines of this peptide turned out to be 77.5.

The molecule B9 displayed a normalised SPOT signal, Boehringer light units (BLU); mean over the file's lines of this peptide of 18.6.

For B10, the normalised SPOT signal, Boehringer light units (BLU); mean over the file's lines of this peptide was determined as 2350.

As to B11, the normalised SPOT signal, Boehringer light units (BLU); mean over the file's lines of this peptide worked out at 4960.

As for B12, the normalised SPOT signal, Boehringer light units (BLU); mean over the file's lines of this peptide came out at 117.

Turning to B13, the normalised SPOT signal, Boehringer light units (BLU); mean over the file's lines of this peptide came out at 16.7.

B14 displayed a normalised SPOT signal, Boehringer light units (BLU); mean over the file's lines of this peptide of 24.3.

Consider B15, for which the normalised SPOT signal, Boehringer light units (BLU); mean over the file's lines of this peptide was 112.

B16 displayed a normalised SPOT signal, Boehringer light units (BLU); mean over the file's lines of this peptide of 12.2.

Take B17: the normalised SPOT signal, Boehringer light units (BLU); mean over the file's lines of this peptide was 85.5.

The molecule B18 came in with a normalised SPOT signal, Boehringer light units (BLU); mean over the file's lines of this peptide of 3700.

On to B19, for which the normalised SPOT signal, Boehringer light units (BLU); mean over the file's lines of this peptide is 33.8.

In turn, B20 displayed a normalised SPOT signal, Boehringer light units (BLU); mean over the file's lines of this peptide of 38.5.

Molecule B21 displayed a normalised SPOT signal, Boehringer light units (BLU); mean over the file's lines of this peptide of 34.4.

Molecule B22 registered a normalised SPOT signal, Boehringer light units (BLU); mean over the file's lines of this peptide of 61.4.

B23 returned a normalised SPOT signal, Boehringer light units (BLU); mean over the file's lines of this peptide of 419.

Regarding B24, the normalised SPOT signal, Boehringer light units (BLU); mean over the file's lines of this peptide came out at 1520.

B25 displayed a normalised SPOT signal, Boehringer light units (BLU); mean over the file's lines of this peptide of 53.4.

Consider B26, for which the normalised SPOT signal, Boehringer light units (BLU); mean over the file's lines of this peptide amounted to 1030.

In the case of B27, the normalised SPOT signal, Boehringer light units (BLU); mean over the file's lines of this peptide was 17.2.

Take B28: the normalised SPOT signal, Boehringer light units (BLU); mean over the file's lines of this peptide is 35.9.

Another assay deals with endophilin SH3 (SH3G2_HUMAN), Q99962. Briefly: SPOT array.
B1 showed a normalised SPOT signal, Boehringer light units (BLU); mean over the file's lines of this peptide of 1300.

The molecule B2 registered a normalised SPOT signal, Boehringer light units (BLU); mean over the file's lines of this peptide of 67.2.

As to B3, the normalised SPOT signal, Boehringer light units (BLU); mean over the file's lines of this peptide stood at 2240.

B4: the normalised SPOT signal, Boehringer light units (BLU); mean over the file's lines of this peptide stood at 480.

In the case of B5, the normalised SPOT signal, Boehringer light units (BLU); mean over the file's lines of this peptide came out at 5.6.

Molecule B6 returned a normalised SPOT signal, Boehringer light units (BLU); mean over the file's lines of this peptide of 93.8.

Molecule B7 displayed a normalised SPOT signal, Boehringer light units (BLU); mean over the file's lines of this peptide of 132.

Molecule B8 yielded a normalised SPOT signal, Boehringer light units (BLU); mean over the file's lines of this peptide of 1350.

In turn, B9 yielded a normalised SPOT signal, Boehringer light units (BLU); mean over the file's lines of this peptide of 89.6.

The molecule B10 came in with a normalised SPOT signal, Boehringer light units (BLU); mean over the file's lines of this peptide of 1060.

The molecule B11 showed a normalised SPOT signal, Boehringer light units (BLU); mean over the file's lines of this peptide of 3200.

B12 displayed a normalised SPOT signal, Boehringer light units (BLU); mean over the file's lines of this peptide of 54.6.

As to B13, the normalised SPOT signal, Boehringer light units (BLU); mean over the file's lines of this peptide was found to be 133.

B14 showed a normalised SPOT signal, Boehringer light units (BLU); mean over the file's lines of this peptide of 21.2.

As for B15, the normalised SPOT signal, Boehringer light units (BLU); mean over the file's lines of this peptide came out at 78.1.

Turning to B16, the normalised SPOT signal, Boehringer light units (BLU); mean over the file's lines of this peptide was 179.

Take B17: the normalised SPOT signal, Boehringer light units (BLU); mean over the file's lines of this peptide came to 102.

On to B18, for which the normalised SPOT signal, Boehringer light units (BLU); mean over the file's lines of this peptide is 2770.

B19: the normalised SPOT signal, Boehringer light units (BLU); mean over the file's lines of this peptide amounted to 127.

The molecule B20 came in with a normalised SPOT signal, Boehringer light units (BLU); mean over the file's lines of this peptide of 128.

For B21, the normalised SPOT signal, Boehringer light units (BLU); mean over the file's lines of this peptide is 365.

For B22, the normalised SPOT signal, Boehringer light units (BLU); mean over the file's lines of this peptide was 1850.

B23 had a normalised SPOT signal, Boehringer light units (BLU); mean over the file's lines of this peptide of 4290.

Molecule B24 registered a normalised SPOT signal, Boehringer light units (BLU); mean over the file's lines of this peptide of 4940.

As to B25, the normalised SPOT signal, Boehringer light units (BLU); mean over the file's lines of this peptide is 72.8.

B26: the normalised SPOT signal, Boehringer light units (BLU); mean over the file's lines of this peptide came to 73.5.

As for B27, the normalised SPOT signal, Boehringer light units (BLU); mean over the file's lines of this peptide is 55.3.

Consider B28, for which the normalised SPOT signal, Boehringer light units (BLU); mean over the file's lines of this peptide turned out to be 96.5.
